The target in the experiment is SARS-CoV-2 spike RBD (WT) (Severe acute respiratory syndrome …, UniProt P0DTC2). The experiment is described as follows: ELISA. Set-up: unit not given here. (ELISA stands for enzyme-linked immunosorbent assay.)

We go through eleven molecules from paper PMC9876794 (2022).

B1: D187 (antibody, V domains shown)
VH: QVQLVQSGAEVKKPGSSVKVSCKASGGTFSSYAISWVRQAPGQGLEWMGGIIPIFGTANYAQKFQGRVTITADESTSTAYMELSSLRSEDTAVYYCATRGWSGYQTMQKNAFDIWGQGTMVTVSS
VL: not shown
Molecule B1 came in with a binding score of more than 10000.

B2: D087 (antibody, V domains shown)
VH: QVQLVQSGAEVKKPGASVKVSCKASGYTFTNYDFNWVRQAPGQGLEWMGWMNPNSGNTGYAQKFQGRVTITRNTSINTAYMELSSLRSEDTAVYYCARAPDCSSFSCSYYFDYWGQGTLVTVSS
VL: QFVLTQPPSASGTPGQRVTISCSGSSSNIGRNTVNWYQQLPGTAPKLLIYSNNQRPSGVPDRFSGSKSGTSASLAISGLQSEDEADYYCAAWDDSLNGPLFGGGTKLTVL
In turn, B2 came in with a binding score of more than 10000.

B3: D181 (antibody, V domains shown)
VH: QVQLQESGPGLVKPSQTLSLTCTVSGGSISSGGYYWSWIRQHPGKGLEWIGYIYYSGSTYYNPSLKSRVTISVDTSKNQFSLKLSSVTAADTAVYYCARDRMEIYYDSSGYHPGPFDYWGQGTLVTVSS
VL: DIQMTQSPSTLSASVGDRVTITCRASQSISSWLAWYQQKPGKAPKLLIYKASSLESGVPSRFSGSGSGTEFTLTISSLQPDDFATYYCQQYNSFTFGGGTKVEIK
In turn, B3 gave a binding score of more than 10000.

B4: D090 (antibody, V domains shown)
VH: EVQLVESGGGLVQPGRSLRLSCAASGFTFDDYAMHWVRQAPGKGLEWVSGISWNSGSIGYADSVKGRFTISRDNAKNSLYLQMNSLRAEDMALYYCAKGLPYSSSWYDAFDIWGQGTMVTVSS
VL: not shown
Turning to B4, the binding score was more than 10000.

B5: D119 (antibody, V domains shown)
VH: QLQLQESGPGLVKPSETLSLTCTVSGGSISSSSYYWGWIRQPPGKGLEWIGSIYYSGSTYYNPSLKSRVTISVDTSKNQFSLKLSSVTAADTAVYYCARLYSSGWYAFISWGQGTLVTVSS
VL: not shown
The molecule B5 registered a binding score of more than 10000.

B6: D130 (antibody, V domains shown)
VH: EVQLVESGGGLVQPGRSLRLSCAASGFTFDDYAMHWVRQAPGKGLEWVSGISWNSGSIGYADSVKGRFTISRDNAKNSLYLQMNSLRAEDTALYYCAKSGLYGDYDAAFDYWGQGTLVTVSS
VL: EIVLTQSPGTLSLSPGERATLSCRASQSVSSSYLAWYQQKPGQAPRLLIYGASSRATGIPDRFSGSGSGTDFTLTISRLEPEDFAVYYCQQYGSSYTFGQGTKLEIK
Consider B6, for which the binding score is more than 10000.

B7: D134 (antibody, V domains shown)
VH: EVQLVESGGGVVQPGGSLRLSCAASGFTFDDYAMHWVRQAPGKGLEWVSLISGDGGSTYYADSVKGRFTISRDNSKNSLYLQMNSLRTEDTALYYCANGERGGNPRGGYYYYGMDVWGQGTTVTVSS
VL: EIVLTQSPATLSLSPGERATLSCRASQSVSSYLAWYQQKPGQAPRLLIYDASNRATGIPARFSGSGSGTDFTLTISSLEPEDFAVYYCQQRSNWPPYTFGQGTKLEIK
As for B7, the binding score was more than 10000.

B8: D133 (antibody, V domains shown)
VH: EVQLVESGGGLVQPGGSLRLSCAASGFTFSSYDMHWVRQATGKGLEWVSAIGTAGDTYYPGSVKGRFTISRENAKNSLYLQMNSLRAGDTAVYYCARGTTVSQQYPSGIPYYYGMDVWGQGTTVTVSS
VL: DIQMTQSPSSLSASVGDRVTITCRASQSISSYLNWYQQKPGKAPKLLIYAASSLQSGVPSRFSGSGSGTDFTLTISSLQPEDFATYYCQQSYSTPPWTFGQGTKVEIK
As for B8, the binding score is more than 10000.

B9: D116 (antibody, V domains shown)
VH: EVQLVESGGGLVLPGGSLRLSCVASGFTFSSYWMTWVRQAPGKGLEWVANIQRDGREKYYVDSLKGRFSISRDNDKNSLYLQMNNLRAEDTGVYYCARAQTCTTCSSPNWFDPWGQGTLVTVSS
VL: QSVLTQPASVSGSPGQSITISCTGTSSDVGSYNLVSWYQQHPGKAPKLIIYEGSKRPSGVSNRFSGSKSGNTASLTISGLQAEDEADYYCCSYAGSNTLVFGGGTKVTVL
For B9, the binding score was more than 10000.

B10: D135 (antibody, V domains shown)
VH: EVQLVESGGGLIQPGGSLRLSCAASGFTVSSNYMTWVRQAPGKGLEWVSLIYSGGSTYYTDSVKGRFTISRDNSKNTLYLQMNSLRAEDTAVYYCARLLITMVRGVISSGLDYWGQGTLVTVSS
VL: EIVLTQSPGTLSLSPGERATLSCRASQSVSSSYLAWYQQRPGQPPRLLIYGASSRATGIPDRFSDSGSGTDFTLTISRLEPEDFAVYYCQQYGSSPPITFGQGTRLDIK
B10 came in with a binding score of 1110.

B11: D011 (antibody, V domains shown)
VH: EVQLVESGGGLVQPGRSLRLSCAASGFTFDDYAMHWVRQAPGKGLEWVSGISWNSGSIGYADSVKGRFTISRDNAKNSLYLQMNSLRAEDTALYYCAKGDSSGYYFAYEDYGMDVWGQGTTVTVSS
VL: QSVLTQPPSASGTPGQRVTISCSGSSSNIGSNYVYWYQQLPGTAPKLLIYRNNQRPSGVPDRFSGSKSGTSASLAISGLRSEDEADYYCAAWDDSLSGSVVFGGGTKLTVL
Consider B11, for which the binding score was more than 10000.
